Assay results taken from the supplement of paper PMC9233669.
Fewer inactive variants are shown than the library holds.

Experiments:
biotinyl-Leu-oxazolone = experiment: self-aminoacylation, catalytic enhancement (BLO) (fold over background); higher = more active; k-Seq, kA / k0A0; sequences stand for … in GGGAAUGGAUCCACAUCUACGAAUUC…UUCACUGCAGACUUGACGAAGCUG
How it was run: (§1)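 Working in 50 μL HEPES/NaCl/KCl/MgCl2/CaCl2 buffer with 5% acetonitrile at pH 6.9–7.0, mutagenized RNA pools (0.43 μM; 21-nt variable region) were reacted with 2–1250 μM of each biotinyl-aminoacyl-oxazolone for 90 minutes at room temperature. Streptavidin capture followed, with quantification by triplicate qPCR and Illumina sequencing. Catalytic enhancement is reported as median kA over the uncatalyzed rate, the low-activity peak of a bimodal Gaussian fit to the data.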

biotinyl-Met-oxazolone = experiment: self-aminoacylation, catalytic enhancement (BMO) (fold over background); higher = more active; k-Seq, kA / k0A0; sequences stand for … in GGGAAUGGAUCCACAUCUACGAAUUC…UUCACUGCAGACUUGACGAAGCUG
How it was run: as §1

biotinyl-Trp-oxazolone = experiment: self-aminoacylation, catalytic enhancement (BWO) (fold over background); higher = more active; k-Seq, kA / k0A0; sequences stand for … in GGGAAUGGAUCCACAUCUACGAAUUC…UUCACUGCAGACUUGACGAAGCUG
How it was run: as §1

biotinyl-Phe-oxazolone = experiment: self-aminoacylation, catalytic enhancement (BFO) (fold over background); higher = more active; k-Seq, kA / k0A0; sequences stand for … in GGGAAUGGAUCCACAUCUACGAAUUC…UUCACUGCAGACUUGACGAAGCUG
How it was run: as §1

biotinyl-Ile-oxazolone = experiment: self-aminoacylation, catalytic enhancement (BIO) (fold over background); higher = more active; k-Seq, kA / k0A0; sequences stand for … in GGGAAUGGAUCCACAUCUACGAAUUC…UUCACUGCAGACUUGACGAAGCUG
How it was run: as §1

biotinyl-Val-oxazolone = experiment: self-aminoacylation, catalytic enhancement (BVO) (fold over background); higher = more active; k-Seq, kA / k0A0; sequences stand for … in GGGAAUGGAUCCACAUCUACGAAUUC…UUCACUGCAGACUUGACGAAGCUG
How it was run: as §1

## CCACACUUCUUGCAAUCGGUC [Fam1B.1 aminoacylation ribozyme variant]
biotinyl-Leu-oxazolone
  self-aminoacylation: 0.72
biotinyl-Met-oxazolone
  self-aminoacylation: 0.76
biotinyl-Trp-oxazolone
  self-aminoacylation: 0.654
biotinyl-Phe-oxazolone
  self-aminoacylation: 0.7
biotinyl-Ile-oxazolone
  self-aminoacylation: 0.783
biotinyl-Val-oxazolone
  self-aminoacylation: 0.765

## AAGUUUACUAAUAUUCGCAAG [Fam3.1 aminoacylation ribozyme variant]
biotinyl-Leu-oxazolone
  self-aminoacylation: 1.44
biotinyl-Met-oxazolone
  self-aminoacylation: 1.31
biotinyl-Trp-oxazolone
  self-aminoacylation: 2.23
biotinyl-Phe-oxazolone
  self-aminoacylation: 2.42
biotinyl-Ile-oxazolone
  self-aminoacylation: 1.67
biotinyl-Val-oxazolone
  self-aminoacylation: 1.66

## AUUCACCUAGGUACUCGGGUG [Fam2.2 aminoacylation ribozyme variant]
biotinyl-Leu-oxazolone
  self-aminoacylation: 3.3
biotinyl-Met-oxazolone
  self-aminoacylation: 2.47
biotinyl-Trp-oxazolone
  self-aminoacylation: 2.78
biotinyl-Phe-oxazolone
  self-aminoacylation: 29.8
biotinyl-Ile-oxazolone
  self-aminoacylation: 2.15
biotinyl-Val-oxazolone
  self-aminoacylation: 2.11

## AUUCUCCUAGGUCAUCUGGUG [Fam2.2 aminoacylation ribozyme variant]
biotinyl-Leu-oxazolone
  self-aminoacylation: 5.43
biotinyl-Met-oxazolone
  self-aminoacylation: 4.5
biotinyl-Trp-oxazolone
  self-aminoacylation: 4.16
biotinyl-Phe-oxazolone
  self-aminoacylation: 30
biotinyl-Ile-oxazolone
  self-aminoacylation: 3.03
biotinyl-Val-oxazolone
  self-aminoacylation: 2.91

## AGUCACUUAGGUCAUCGGGUG [Fam2.2 aminoacylation ribozyme variant]
biotinyl-Leu-oxazolone
  self-aminoacylation: 6.96
biotinyl-Met-oxazolone
  self-aminoacylation: 5.12
biotinyl-Trp-oxazolone
  self-aminoacylation: 5.93
biotinyl-Phe-oxazolone
  self-aminoacylation: 46.1
biotinyl-Ile-oxazolone
  self-aminoacylation: 4.65
biotinyl-Val-oxazolone
  self-aminoacylation: 4.36

## CCACACUUCAAUCAAUCGGUG [Fam1B.1 aminoacylation ribozyme variant]
biotinyl-Leu-oxazolone
  self-aminoacylation: 3.6
biotinyl-Met-oxazolone
  self-aminoacylation: 2.66
biotinyl-Trp-oxazolone
  self-aminoacylation: 2.57
biotinyl-Phe-oxazolone
  self-aminoacylation: 2.64
biotinyl-Ile-oxazolone
  self-aminoacylation: 2.23
biotinyl-Val-oxazolone
  self-aminoacylation: 1.98

## AUCCACCUAUGUCAUCGGGUG [Fam2.2 aminoacylation ribozyme variant]
biotinyl-Leu-oxazolone
  self-aminoacylation: 7.91
biotinyl-Met-oxazolone
  self-aminoacylation: 6.38
biotinyl-Trp-oxazolone
  self-aminoacylation: 5.8
biotinyl-Phe-oxazolone
  self-aminoacylation: 49.9
biotinyl-Ile-oxazolone
  self-aminoacylation: 4.42
biotinyl-Val-oxazolone
  self-aminoacylation: 4.12

## CUACUUCAAGGAAUCGGUCUG [Fam1A.1 aminoacylation ribozyme variant]
biotinyl-Leu-oxazolone
  self-aminoacylation: 1.97
biotinyl-Met-oxazolone
  self-aminoacylation: 1.64
biotinyl-Trp-oxazolone
  self-aminoacylation: 3.64
biotinyl-Phe-oxazolone
  self-aminoacylation: 8.77
biotinyl-Ile-oxazolone
  self-aminoacylation: 1.54
biotinyl-Val-oxazolone
  self-aminoacylation: 1.42

## AUUACCCUGGUCAUGGAGUGA [Fam2.1 aminoacylation ribozyme variant]
biotinyl-Leu-oxazolone
  self-aminoacylation: 4.95
biotinyl-Met-oxazolone
  self-aminoacylation: 4.69
biotinyl-Trp-oxazolone
  self-aminoacylation: 5.8
biotinyl-Phe-oxazolone
  self-aminoacylation: 19.7
biotinyl-Ile-oxazolone
  self-aminoacylation: 3.07
biotinyl-Val-oxazolone
  self-aminoacylation: 3.02

## AUUACCCUGGUCAUCUGGUGA [Fam2.1 aminoacylation ribozyme variant]
biotinyl-Leu-oxazolone
  self-aminoacylation: 5.37
biotinyl-Met-oxazolone
  self-aminoacylation: 5
biotinyl-Trp-oxazolone
  self-aminoacylation: 4.53
biotinyl-Phe-oxazolone
  self-aminoacylation: 31.1
biotinyl-Ile-oxazolone
  self-aminoacylation: 3.08
biotinyl-Val-oxazolone
  self-aminoacylation: 2.72

## AUUUCCCUGGUCAUCGAGGGA [Fam2.1 aminoacylation ribozyme variant]
biotinyl-Leu-oxazolone
  self-aminoacylation: 1.83
biotinyl-Met-oxazolone
  self-aminoacylation: 1.44
biotinyl-Trp-oxazolone
  self-aminoacylation: 1.65
biotinyl-Phe-oxazolone
  self-aminoacylation: 1.28
biotinyl-Ile-oxazolone
  self-aminoacylation: 1.47
biotinyl-Val-oxazolone
  self-aminoacylation: 1.59

## AUUCGCCUAGGUCGUCGGGUG [Fam2.2 aminoacylation ribozyme variant]
biotinyl-Leu-oxazolone
  self-aminoacylation: 2.18
biotinyl-Met-oxazolone
  self-aminoacylation: 2.28
biotinyl-Trp-oxazolone
  self-aminoacylation: 1.51
biotinyl-Phe-oxazolone
  self-aminoacylation: 11.6
biotinyl-Ile-oxazolone
  self-aminoacylation: 1.56
biotinyl-Val-oxazolone
  self-aminoacylation: 2.22

## AAGUUUGCAAAUAGUCACAAG [Fam3.1 aminoacylation ribozyme variant]
biotinyl-Leu-oxazolone
  self-aminoacylation: 0.949
biotinyl-Met-oxazolone
  self-aminoacylation: 1.11
biotinyl-Trp-oxazolone
  self-aminoacylation: 0.887
biotinyl-Phe-oxazolone
  self-aminoacylation: 0.954
biotinyl-Ile-oxazolone
  self-aminoacylation: 1.05
biotinyl-Val-oxazolone
  self-aminoacylation: 0.982

## AUUCACCUAGGUUAUCGGGUA [Fam2.2 aminoacylation ribozyme variant]
biotinyl-Leu-oxazolone
  self-aminoacylation: 3.54
biotinyl-Met-oxazolone
  self-aminoacylation: 2.55
biotinyl-Trp-oxazolone
  self-aminoacylation: 3.37
biotinyl-Phe-oxazolone
  self-aminoacylation: 13.3
biotinyl-Ile-oxazolone
  self-aminoacylation: 2.02
biotinyl-Val-oxazolone
  self-aminoacylation: 2.49

## AAGUUUGAGAAUAGUCGCAAG [Fam3.1 aminoacylation ribozyme variant]
biotinyl-Leu-oxazolone
  self-aminoacylation: 1.25
biotinyl-Met-oxazolone
  self-aminoacylation: 1.2
biotinyl-Trp-oxazolone
  self-aminoacylation: 1.59
biotinyl-Phe-oxazolone
  self-aminoacylation: 2.05
biotinyl-Ile-oxazolone
  self-aminoacylation: 1.48
biotinyl-Val-oxazolone
  self-aminoacylation: 1.29

## AUUAUACUGGUCAUCGAGUGA [Fam2.1 aminoacylation ribozyme variant]
biotinyl-Leu-oxazolone
  self-aminoacylation: 5.28
biotinyl-Met-oxazolone
  self-aminoacylation: 4.91
biotinyl-Trp-oxazolone
  self-aminoacylation: 5.99
biotinyl-Phe-oxazolone
  self-aminoacylation: 6.45
biotinyl-Ile-oxazolone
  self-aminoacylation: 2.91
biotinyl-Val-oxazolone
  self-aminoacylation: 2.56

## AAGUUGGCUAAUAUUCGCAAG [Fam3.1 aminoacylation ribozyme variant]
biotinyl-Leu-oxazolone
  self-aminoacylation: 2.11
biotinyl-Met-oxazolone
  self-aminoacylation: 1.85
biotinyl-Trp-oxazolone
  self-aminoacylation: 3.02
biotinyl-Phe-oxazolone
  self-aminoacylation: 2.07
biotinyl-Ile-oxazolone
  self-aminoacylation: 2.32
biotinyl-Val-oxazolone
  self-aminoacylation: 2.09

## AUUCACCUGGGUCAUCGGUUG [Fam2.2 aminoacylation ribozyme variant]
biotinyl-Leu-oxazolone
  self-aminoacylation: 1.4
biotinyl-Met-oxazolone
  self-aminoacylation: 0.904
biotinyl-Trp-oxazolone
  self-aminoacylation: 1.62
biotinyl-Phe-oxazolone
  self-aminoacylation: 3.76
biotinyl-Ile-oxazolone
  self-aminoacylation: 1.25
biotinyl-Val-oxazolone
  self-aminoacylation: 1.44

## AAGUUUGCUACUAGUCGGAAG [Fam3.1 aminoacylation ribozyme variant]
biotinyl-Leu-oxazolone
  self-aminoacylation: 0.518
biotinyl-Met-oxazolone
  self-aminoacylation: 0.712
biotinyl-Trp-oxazolone
  self-aminoacylation: 0.866
biotinyl-Phe-oxazolone
  self-aminoacylation: 0.777
biotinyl-Ile-oxazolone
  self-aminoacylation: 0.835
biotinyl-Val-oxazolone
  self-aminoacylation: 0.749

## AUUCACCUCGGUCAUCGGGUG [Fam2.2 aminoacylation ribozyme variant]
biotinyl-Leu-oxazolone
  self-aminoacylation: 9.64
biotinyl-Met-oxazolone
  self-aminoacylation: 7.69
biotinyl-Trp-oxazolone
  self-aminoacylation: 7.49
biotinyl-Phe-oxazolone
  self-aminoacylation: 53.6
biotinyl-Ile-oxazolone
  self-aminoacylation: 4.59
biotinyl-Val-oxazolone
  self-aminoacylation: 5.15

## CGACUUCAAAGAAUCGGUCUG [Fam1A.1 aminoacylation ribozyme variant]
biotinyl-Leu-oxazolone
  self-aminoacylation: 1.66
biotinyl-Met-oxazolone
  self-aminoacylation: 1.32
biotinyl-Trp-oxazolone
  self-aminoacylation: 7.38
biotinyl-Phe-oxazolone
  self-aminoacylation: 9.34
biotinyl-Ile-oxazolone
  self-aminoacylation: 1.31
biotinyl-Val-oxazolone
  self-aminoacylation: 1.3

## CCACACUUCAAACAAUCGCUC [Fam1B.1 aminoacylation ribozyme variant]
biotinyl-Leu-oxazolone
  self-aminoacylation: 1.29
biotinyl-Met-oxazolone
  self-aminoacylation: 0.869
biotinyl-Trp-oxazolone
  self-aminoacylation: 0.765
biotinyl-Phe-oxazolone
  self-aminoacylation: 1.32
biotinyl-Ile-oxazolone
  self-aminoacylation: 1.1
biotinyl-Val-oxazolone
  self-aminoacylation: 1.33

## CUACUUCAAACAAUCGCGCUG [Fam1A.1 aminoacylation ribozyme variant]
biotinyl-Leu-oxazolone
  self-aminoacylation: 1.88
biotinyl-Met-oxazolone
  self-aminoacylation: 1.52
biotinyl-Trp-oxazolone
  self-aminoacylation: 1.1
biotinyl-Phe-oxazolone
  self-aminoacylation: 1.59
biotinyl-Ile-oxazolone
  self-aminoacylation: 1.47
biotinyl-Val-oxazolone
  self-aminoacylation: 1.35

## AAGUCUGUUAAUAGUCGCAAG [Fam3.1 aminoacylation ribozyme variant]
biotinyl-Leu-oxazolone
  self-aminoacylation: 1.01
biotinyl-Met-oxazolone
  self-aminoacylation: 1.03
biotinyl-Trp-oxazolone
  self-aminoacylation: 0.936
biotinyl-Phe-oxazolone
  self-aminoacylation: 1.04
biotinyl-Ile-oxazolone
  self-aminoacylation: 1.14
biotinyl-Val-oxazolone
  self-aminoacylation: 1.03

## AUUACCCUGGCCAUCGAGUGU [Fam2.1 aminoacylation ribozyme variant]
biotinyl-Leu-oxazolone
  self-aminoacylation: 2.04
biotinyl-Met-oxazolone
  self-aminoacylation: 3.06
biotinyl-Trp-oxazolone
  self-aminoacylation: 2.51
biotinyl-Phe-oxazolone
  self-aminoacylation: 2.1
biotinyl-Ile-oxazolone
  self-aminoacylation: 1.42
biotinyl-Val-oxazolone
  self-aminoacylation: 1.93
